# Measured values: US20170015742A1 (published 2017)
# Substitutions are numbered along the chain they refer to.
# B1: 1B10.1_GS_3E2.1 (bispecific antibody, human IgG1, kappa, L234A L235A)
# heavy: EVQLVESGGGLVQPGGSLRLSCAASGFSFSKYDMAWFRQAPGKGLEWVASITTSGVGTYYRDSVKGRFTVSRDNAKSTLYLQMNSLRAEDTAVYYCARGYGAMDAWGQGTTVTVSSGGGGSGGGGSEVQLVQSGAEVKKPGSSVKVSCKASGYTFTESYMYWVKQAPGQGLELIGRIDPEDGSTDYVEKFKNKATLTADKSTSTAYMELSSLRSEDTAVYFCARFGARSYFYPMDAWGQGTTVTVSSASTKGPSVFPLAPSSKSTSGGTAALGCLVKDYFPEPVTVSWNSGALTSGVHTFPAVLQSSGLYSLSSVVTVPSSSLGTQTYICNVNHKPSNTKVDKKVEPKSCDKTHTCPPCPAPEAAGGPSVFLFPPKPKDTLMISRTPEVTCVVVDVSHEDPEVKFNWYVDGVEVHNAKTKPREEQYNSTYRVVSVLTVLHQDWLNGKEYKCKVSNKALPAPIEKTISKAKGQPREPQVYTLPPSREEMTKNQVSLTCLVKGFYPSDIAVEWESNGQPENNYKTTPPVLDSDGSFFLYSKLTVDKSRWQQGNVFSCSVMHEALHNAYTQKSLSLSPGK
# light: DIQMTQSPSSLSASVGDRVTITCKASQDIDDYLSWYQQKPGKSPKLVIYAATRLADGVPSRFSGSGSGTDYTLTISSLQPEDFATYYCLQSSSTPWTFGGGTKVEIKGGSGGGGSGGETVLTQSPATLSLSPGERATLSCRASESVSTLMHWYQQKPGQQPRLLIYGASNLESGVPARFSGSGSGTDFTLTISSLEPEDFAVYFCQQSWNDPWTFGGGTKVEIKRTVAAPSVFIFPPSDEQLKSGTASVVCLLNNFYPREAKVQWKVDNALQSGNSQESVTEQDSKDSTYSLSSTLTLSKADYEKHKVYACEVTHQGLSSPVTKSFNRGEC
# B2: 1E3.4_GS_CL-33675 (bispecific antibody, human IgG1, kappa, L234A L235A)
# heavy: EIQLVQSGSELKKPGASVKVSCKASGYPFTNSGMYWVKQAPGQGLEYMGWINTEAGKPTYADDFKGRFVFSLDTSVSTAYLQISSLKAEDTAVYFCARWGYISDNSYGWFDYWGQGTLVTVSSGGGGSGGGGSEVTLRESGPALVKPTQTLTLTCTFSGFSLSTYGMGVGWIRQPPGKALEWLANIWWDDDKYYNPSLKNRLTISKDTSKNQVVLTMTNMDPVDTATYYCARIESSGPKYSFDYWGQGTMVTVSSASTKGPSVFPLAPSSKSTSGGTAALGCLVKDYFPEPVTVSWNSGALTSGVHTFPAVLQSSGLYSLSSVVTVPSSSLGTQTYICNVNHKPSNTKVDKKVEPKSCDKTHTCPPCPAPEAAGGPSVFLFPPKPKDTLMISRTPEVTCVVVDVSHEDPEVKFNWYVDGVEVHNAKTKPREEQYNSTYRVVSVLTVLHQDWLNGKEYKCKVSNKALPAPIEKTISKAKGQPREPQVYTLPPSREEMTKNQVSLTCLVKGFYPSDIAVEWESNGQPENNYKTTPPVLDSDGSFFLYSKLTVDKSRWQQGNVFSCSVMHEALHNAYTQKSLSLSPGK
# light: ATQLTQSPSSLSASVGDRVTISCRASEGVYSYMHWYQQKPGKQPKLLIYKASNLASGVPSRFSGSGSGTDFTLTISSLQPEDFATYFCHQNWNDPLTFGQGTKLEIKGGSGGGGSGGEIVLTQSPGTLSLSPGERATLSCRASSGSIWYSFVSWYQQKPGQAPRLLIYADDQRASGIPDRFSGSGSGTDFTLTISRLEPEDFAVYYCQSYGINIDVVFGGGTKVEIKRTVAAPSVFIFPPSDEQLKSGTASVVCLLNNFYPREAKVQWKVDNALQSGNSQESVTEQDSKDSTYSLSSTLTLSKADYEKHKVYACEVTHQGLSSPVTKSFNRGEC
# B3: 1E3.4_GS_9E8.4 (bispecific antibody, human IgG1, kappa, L234A L235A)
# heavy: B2 heavy with S236I, P238T, K239T
# light: ATQLTQSPSSLSASVGDRVTISCRASEGVYSYMHWYQQKPGKQPKLLIYKASNLASGVPSRFSGSGSGTDFTLTISSLQPEDFATYFCHQNWNDPLTFGQGTKLEIKGGSGGGGSGGEFVLTQSPGTLSLSPGERATLSCERSSGDIGDSYVSWYQQKPGQAPRLVIYADDQRPSGIPDRFSGSGSGTDFTLTISRLEPEDFAVYYCQSYDINIDIVFGGGTKVEIKRTVAAPSVFIFPPSDEQLKSGTASVVCLLNNFYPREAKVQWKVDNALQSGNSQESVTEQDSKDSTYSLSSTLTLSKADYEKHKVYACEVTHQGLSSPVTKSFNRGEC
# B4: CL-33675_GS_9E10.1 (bispecific antibody, human IgG1, kappa, L234A L235A)
# heavy: EVTLRESGPALVKPTQTLTLTCTFSGFSLSTYGMGVGWIRQPPGKALEWLANIWWDDDKYYNPSLKNRLTISKDTSKNQVVLTMTNMDPVDTATYYCARIESSGPKYSFDYWGQGTMVTVSSGGGGSGGGGSEIQLVQSGSELKKPGASVKVSCKASGYTFTNYGMYWVKQAPGQGLEYMGWIDTETGRPTYADDFKGRFVFSLDTSVSTAYLQISSLKAEDTAVYFCARWSGDTTGIRGPWFAYWGQGTLVTVSSASTKGPSVFPLAPSSKSTSGGTAALGCLVKDYFPEPVTVSWNSGALTSGVHTFPAVLQSSGLYSLSSVVTVPSSSLGTQTYICNVNHKPSNTKVDKKVEPKSCDKTHTCPPCPAPEAAGGPSVFLFPPKPKDTLMISRTPEVTCVVVDVSHEDPEVKFNWYVDGVEVHNAKTKPREEQYNSTYRVVSVLTVLHQDWLNGKEYKCKVSNKALPAPIEKTISKAKGQPREPQVYTLPPSREEMTKNQVSLTCLVKGFYPSDIAVEWESNGQPENNYKTTPPVLDSDGSFFLYSKLTVDKSRWQQGNVFSCSVMHEALHNAYTQKSLSLSPGK
# light: EIVLTQSPGTLSLSPGERATLSCRASSGSIWYSFVSWYQQKPGQAPRLLIYADDQRASGIPDRFSGSGSGTDFTLTISRLEPEDFAVYYCQSYGINIDVVFGGGTKVEIKGGSGGGGSGGDIRMTQSPSSLSASVGDRVTIECLASEDIYSDLAWYQQKPGKSPKLLIYNANGLQNGVPSRFSGSGSGTDYSLTISSLQPEDVATYFCQQYNYFPGTFGQGTKLEIKRTVAAPSVFIFPPSDEQLKSGTASVVCLLNNFYPREAKVQWKVDNALQSGNSQESVTEQDSKDSTYSLSSTLTLSKADYEKHKVYACEVTHQGLSSPVTKSFNRGEC
# B5: 1B10.1_GS_CL-33675 (bispecific antibody, human IgG1, kappa, L234A L235A)
# heavy: EVQLVESGGGLVQPGGSLRLSCAASGFSFSKYDMAWFRQAPGKGLEWVASITTSGVGTYYRDSVKGRFTVSRDNAKSTLYLQMNSLRAEDTAVYYCARGYGAMDAWGQGTTVTVSSGGGGSGGGGSEVTLRESGPALVKPTQTLTLTCTFSGFSLSTYGMGVGWIRQPPGKALEWLANIWWDDDKYYNPSLKNRLTISKDTSKNQVVLTMTNMDPVDTATYYCARIESSGPKYSFDYWGQGTMVTVSSASTKGPSVFPLAPSSKSTSGGTAALGCLVKDYFPEPVTVSWNSGALTSGVHTFPAVLQSSGLYSLSSVVTVPSSSLGTQTYICNVNHKPSNTKVDKKVEPKSCDKTHTCPPCPAPEAAGGPSVFLFPPKPKDTLMISRTPEVTCVVVDVSHEDPEVKFNWYVDGVEVHNAKTKPREEQYNSTYRVVSVLTVLHQDWLNGKEYKCKVSNKALPAPIEKTISKAKGQPREPQVYTLPPSREEMTKNQVSLTCLVKGFYPSDIAVEWESNGQPENNYKTTPPVLDSDGSFFLYSKLTVDKSRWQQGNVFSCSVMHEALHNAYTQKSLSLSPGK
# light: DIQMTQSPSSLSASVGDRVTITCKASQDIDDYLSWYQQKPGKSPKLVIYAATRLADGVPSRFSGSGSGTDYTLTISSLQPEDFATYYCLQSSSTPWTFGGGTKVEIKGGSGGGGSGGEIVLTQSPGTLSLSPGERATLSCRASSGSIWYSFVSWYQQKPGQAPRLLIYADDQRASGIPDRFSGSGSGTDFTLTISRLEPEDFAVYYCQSYGINIDVVFGGGTKVEIKRTVAAPSVFIFPPSDEQLKSGTASVVCLLNNFYPREAKVQWKVDNALQSGNSQESVTEQDSKDSTYSLSSTLTLSKADYEKHKVYACEVTHQGLSSPVTKSFNRGEC
# B6: 9E10.1_GS_3E2.1 (bispecific antibody, human IgG1, kappa, L234A L235A)
# heavy: EIQLVQSGSELKKPGASVKVSCKASGYTFTNYGMYWVKQAPGQGLEYMGWIDTETGRPTYADDFKGRFVFSLDTSVSTAYLQISSLKAEDTAVYFCARWSGDTTGIRGPWFAYWGQGTLVTVSSGGGGSGGGGSEVQLVQSGAEVKKPGSSVKVSCKASGYTFTESYMYWVKQAPGQGLELIGRIDPEDGSTDYVEKFKNKATLTADKSTSTAYMELSSLRSEDTAVYFCARFGARSYFYPMDAWGQGTTVTVSSASTKGPSVFPLAPSSKSTSGGTAALGCLVKDYFPEPVTVSWNSGALTSGVHTFPAVLQSSGLYSLSSVVTVPSSSLGTQTYICNVNHKPSNTKVDKKVEPKSCDKTHTCPPCPAPEAAGGPSVFLFPPKPKDTLMISRTPEVTCVVVDVSHEDPEVKFNWYVDGVEVHNAKTKPREEQYNSTYRVVSVLTVLHQDWLNGKEYKCKVSNKALPAPIEKTISKAKGQPREPQVYTLPPSREEMTKNQVSLTCLVKGFYPSDIAVEWESNGQPENNYKTTPPVLDSDGSFFLYSKLTVDKSRWQQGNVFSCSVMHEALHNAYTQKSLSLSPGK
# light: DIRMTQSPSSLSASVGDRVTIECLASEDIYSDLAWYQQKPGKSPKLLIYNANGLQNGVPSRFSGSGSGTDYSLTISSLQPEDVATYFCQQYNYFPGTFGQGTKLEIKGGSGGGGSGGETVLTQSPATLSLSPGERATLSCRASESVSTLMHWYQQKPGQQPRLLIYGASNLESGVPARFSGSGSGTDFTLTISSLEPEDFAVYFCQQSWNDPWTFGGGTKVEIKRTVAAPSVFIFPPSDEQLKSGTASVVCLLNNFYPREAKVQWKVDNALQSGNSQESVTEQDSKDSTYSLSSTLTLSKADYEKHKVYACEVTHQGLSSPVTKSFNRGEC
# B7: 9E10.6_GS_3E2.1 (bispecific antibody, human IgG1, kappa, L234A L235A)
# heavy: EVQLVQSGAEVKKPGSSVKVSCKASGYTFTNYGMYWVRQAPGQGLEWMGWIDTETGRPTYADDFKGRFTFTADKSTSTAYMELSSLRSEDTAVYYCARWSGDTTGIRGPWFAYWGQGTLVTVSSGGGGSGGGGSEVQLVQSGAEVKKPGSSVKVSCKASGYTFTESYMYWVKQAPGQGLELIGRIDPEDGSTDYVEKFKNKATLTADKSTSTAYMELSSLRSEDTAVYFCARFGARSYFYPMDAWGQGTTVTVSSASTKGPSVFPLAPSSKSTSGGTAALGCLVKDYFPEPVTVSWNSGALTSGVHTFPAVLQSSGLYSLSSVVTVPSSSLGTQTYICNVNHKPSNTKVDKKVEPKSCDKTHTCPPCPAPEAAGGPSVFLFPPKPKDTLMISRTPEVTCVVVDVSHEDPEVKFNWYVDGVEVHNAKTKPREEQYNSTYRVVSVLTVLHQDWLNGKEYKCKVSNKALPAPIEKTISKAKGQPREPQVYTLPPSREEMTKNQVSLTCLVKGFYPSDIAVEWESNGQPENNYKTTPPVLDSDGSFFLYSKLTVDKSRWQQGNVFSCSVMHEALHNAYTQKSLSLSPGK
# light: B6 light with E22T, S72T
# Target: recombinant human PDGF-BB (human, UniProt P01127 82-190)
# Experiment: cell-based or functional assay
# Sequence of recombinant human PDGF-BB (P01127 82-190 limits assumed): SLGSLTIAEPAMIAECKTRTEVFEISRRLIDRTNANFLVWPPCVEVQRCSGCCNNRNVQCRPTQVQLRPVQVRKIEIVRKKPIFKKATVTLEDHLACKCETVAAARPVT
row,Potency IC50 (nM) NIH-3T3 hPDGF-BB [nM],Binder
1,1.54,B1
2,0.037,B2
3,0.329,B3
4,0.031,B4
5,0.037,B5
6,5.72,B6
7,1.32,B7

# Target: recombinant human VEGF165 (human, UniProt P15692 207-395)
# Experiment: cell-based or functional assay
# Sequence of recombinant human VEGF165 (P15692 other isoform, or with tags, fused parts or gaps limits assumed): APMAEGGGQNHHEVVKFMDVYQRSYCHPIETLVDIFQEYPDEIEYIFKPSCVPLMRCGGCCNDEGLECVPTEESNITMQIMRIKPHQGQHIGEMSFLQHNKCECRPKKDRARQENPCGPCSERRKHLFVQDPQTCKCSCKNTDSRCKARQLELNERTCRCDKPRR
row,Potency IC50 (nM) HMVEC-d hVEGF165 [nM],Binder
1,0.084,B1
2,0.067,B2
3,0.092,B3
4,0.064,B4
5,0.05,B5
6,0.054,B6
7,0.06,B7
